Drawing on paper PMC7058448, this text covers stoichiometry N for 1 substance.

The target in this assay is gp120-gp41 protomer of cleaved gp160, HIV-1 isolate 92UG037.8 (HIV-1 isolate 92UG037.8 (clade A)). The assay can be described thus: cryo-EM structure.

The term stoichiometry N denotes the number of molecules, sites or subunits per partner or assembly. In the case of “gp120-gp41 protomer of cleaved gp160, HIV-1 isolate 92UG037.8 (complex)”, the stoichiometry N was 3.
